The text below walks through data of patent US7329737 (DYAX, dated 2008).

The target of the experiment is T1, hK1 (human tissue kallikrein 1), recombinant (human, UniProt P06870 25-262).
T1 construct: Expressed in P. pastoris from KLK1 cDNA and purified; enzymatically active; also called KLK1; Recombinant (Pichia) Kallikrein
As to the kind of experiment: SPR. (In general: Surface plasmon resonance follows binding to a sensor surface in real time, without labels.)

For orientation: Kd means the free concentration of one partner at which half of the binding sites on the other are occupied at equilibrium, for simple one-to-one binding. The koff is the first-order rate constant of dissociation. For orientation: kon means the rate constant with which the complex forms.

B1: M0131-F12 (Fab, V domains shown)
VH: EVQLLESGGGLVQPGGSLRLSCAASGFTFSRYAMGWVRQAPGKGLEWVSYIGPSGGNTTYADSVKGRFTISRDNSKNTLYLQMNSLRAEDTAVYYCARDVGGSGSYYMLSYYYYGMDVWGQGTMVTVSS
VL: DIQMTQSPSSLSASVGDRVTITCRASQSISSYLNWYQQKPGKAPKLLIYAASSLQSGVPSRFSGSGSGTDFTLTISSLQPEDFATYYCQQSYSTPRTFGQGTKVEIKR
Regarding B1, the Kd came out at 37 nM, the koff worked out at 0.00472 s⁻¹ and the kon turned out to be 128000 M⁻¹ s⁻¹.

B2: M0113-G11 (Fab, V domains shown)
VH: EVQLLESGGGLVQPGGSLRLSCAASGFTFSHYMMQWVRQAPGKGLEWVSGIGPSGGWTKYADSVKGRFTISRDNSKNTLYLQMNSLRAEDTALYYCARLNYGDYVWGQGTLVTVSS
VL: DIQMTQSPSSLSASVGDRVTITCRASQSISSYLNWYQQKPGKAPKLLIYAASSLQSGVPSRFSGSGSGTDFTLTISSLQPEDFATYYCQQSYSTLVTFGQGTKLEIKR
On to B2, for which the Kd is 42.5 nM, the koff amounted to 0.0121 s⁻¹ and the kon was 286000 M⁻¹ s⁻¹.

B3: M0116-E08 (Fab, V domains shown)
VH: EVQLLESGGGLVQPGGSLRLSCAASGFTFSRYPMIWVRQAPGKGLEWVSVIYPSGGMTKYADSVKGRFTISRDNSKNTLYLQMNSLRAEDTAVYYCARVGSYGSLGYWGQGTLVTVSS
VL: DIQMTQSPSSLSASVGDRVTITCLASQSISSYLNWYQQKPGKAPKLLIYDASSLESGVPSRFSGSGSGTDFTLTISSLQPEDFAIYYCQQFNGYPPITFGQGTRLEIKR
In the case of B3, the Kd was found to be 72.7 nM, the koff was 0.0164 s⁻¹ and the kon amounted to 225000 M⁻¹ s⁻¹.

B4: M0104-D12 (Fab, V domains shown)
VH: EVQLLESGGGLVQPGGSLRLSCAASGFTFSHYAMFWVRQAPGKGLEWVSSIWPSGGKTMYADSVKGRFTISRDNSKNTLYLQMNSLRAEDTATYYCARGGSYLAFDIWGQGTMVTVSS
VL: DIQMTQSPSSLSASVGDRVTITCRASLSVSGYLNWYQHKPGRAPNLLIYATSSLQSGVPSRFSGSGSGTDFTLTVSSLQPEDLATYYCQQSYSSPYTFGQGTKVEIKG
Regarding B4, the Kd came to 61.3 nM, the koff was 0.0192 s⁻¹ and the kon was 314000 M⁻¹ s⁻¹.

B5: M0103-H07 (Fab, V domains shown)
VH: EVQLLESGGGLVQPGGSLRLSCAASGFTFSHYGMYWVRQAPGKGLEWVSSIYPSGGWTNYADSVKGRFTISRDNSKNTLYLQMNSLRAEDTAVYYCARRGSWGAFDIWGQGTMVTVSS
VL: DIQMTQSPSSLSASVGDRVAITCRASQSIDTYLNWYQQKPGKAPKLLIYAASKLEDGVPSRFSGSGTGTDFTLTIRSLQPEDFATYYCQPYNTYPITFGQGTRLEIKR
As to B5, the Kd worked out at 85.7 nM, the koff is 0.0086 s⁻¹ and the kon was found to be 100000 M⁻¹ s⁻¹.

B6: M0131-D01 (Fab, V domains shown)
VH: EVQLLESGGGLVQPGGSLRLSCAASGFTFSHYNMNWVRQAPGKGLEWVSVIYPSGGQTHYADSVKGRFTISRDNSKNTLYLQMNSLRAEDTAVYYCARRGIWHSFDIWGQGTMVTVSS
VL: DIQMTQSPGTLSLSPGERASLSCRASQSVSSNYLSWYQQKPGQAPRLLIYGTSNRASGIPVRFSGSGSGTDFTLTISRLEPEDFAVYYCQQYGGAPLFIFGPGTRVDIKR
B6: the Kd amounted to 1.04 nM, the koff stood at 0.000325 s⁻¹ and the kon came out at 311000 M⁻¹ s⁻¹.

B7: M0115-F04 (Fab, V domains shown)
VH: EVQLLESGGGLVQPGGSLRLSCAASGFTFSNYLMGWVRQAPGKGLEWVSSIGPSGGYTKYADSVKGRFTISRDNSKNTLYLQMNSLRAEDTAVYYCARGTGTTFFWGQGTLVTVSS
VL: AQSALTQPPSVSVSPGQTVSITCSGDDLGGRHVSWFQQLSGQSPVLVIYQDDKRPSGIPERFSGSNSGNTATLTISGTQSVDEGDYYCLAWHNYKYVFGSGTTVTVLR
Regarding B7, the Kd was 41.6 nM, the koff was 0.0131 s⁻¹ and the kon came out at 314000 M⁻¹ s⁻¹.

B8: M0093-C08 (Fab, V domains shown)
VH: EVQLLESGGGLVQPGGSLRLSCAASGFTFSRYPMGWVRQAPGKGLEWVSSIYPSGGSTYYADSVKGRFTISRDNSKNTLYLQMNSLRAEDTAVYYCARVGVWYGMDVWGQGTTVTVSS
VL: DIQMTQSPGTLSLSPGERATLSCRASQSVSSSYLAWYQQKPGQAPRLLIFAASTRATGIPDRFSGSGSATDFTLTISSLEPEDFAVYYCQQRSNWPPELTFSGGTKVEIKR
As to B8, the Kd amounted to 40.7 nM, the koff stood at 0.00578 s⁻¹ and the kon came to 142000 M⁻¹ s⁻¹.

B9: M0110-D06 (Fab, V domains shown)
VH: EVQLLESGGGLVQPGGSLRLSCAASGFTFSWYRMAWVRQAPGKGLEWVSYIGPSGGSTSYADSVKGRFTISRDNSKNTLYLQMNSLRAEDTATYYCARVGTFYGMDVWGQGTTVTVSS
VL: DIQMTQSPSTLSASLGDRVIITCRASQGIRSWLAWYQQKPGKAPKLLIYAASSLQSGVPSRFSGSGSGTDFTLTISSLQPEDFATYYCQQSYSTPWTFGQGTKVEIKR
As to B9, the Kd stood at 232 nM, the koff was determined as 0.0175 s⁻¹ and the kon turned out to be 75600 M⁻¹ s⁻¹.

B10: M0124-C04 (Fab, V domains shown)
VH: EVQLLESGGGLVQPGGSLRLSCAASGFTFSWYLMGWVRQAPGKGLEWVSVIGPSGGLTKYADSVKGRFTISRDNSKNTLYLQMNSLRAEDTAVYYCARFRGYYGMDVWGQGTTVTVSS
VL: not shown
B10: the Kd came out at 372 nM, the koff is 0.286 s⁻¹ and the kon came to 768000 M⁻¹ s⁻¹.

B11: M0116-A08 (Fab, V domains shown)
VH: EVQLLESGGGLVQPGGSLRLSCAASGFTFSYYMMGWVRQAPGKGLEWVSSIYTSGGYTKYADSVKGRFTISRDNSKNTLYLQMNSLRAEDTAVYYCARASIYYGMDVWGQGTTVTVSS
VL: DIQMTQSPGTLSLSPGERATLSCRASQSVSNSYLAWYQQRPGQAPRLLIYGASSRATGIPDRFSGSGSGTEFTLTISRLEPEDFAVYYCQQFGSSTGYTFGQGTKLELKR
For the molecule B11, the Kd was determined as 88.3 nM, the koff was 0.00994 s⁻¹ and the kon worked out at 113000 M⁻¹ s⁻¹.

B12: M0131-B05 (Fab, V domains shown)
VH: EVQLLESGGGLVQPGGSLRLSCAASGFTFSHYVMSWVRQAPGKGLEWVSYIYPSGGKTHYADSVKGRFTISRDNSKNTLYLQMNSLRAEDTAVYYCARVGVWYGMDVWGQGTTVTVSS
VL: AQYELTQPASVSGSPGQSITISCTGTSSDIGAYNYVSWYQQHPGKAPKLMIYDVSNRPSGVSNRFSGSKSGNTASLTISGLQAEDEADYYCSSYRSSSLMFGGGTKLTVLG
As for B12, the Kd came out at 0.46 nM, the koff was found to be 0.000117 s⁻¹ and the kon was found to be 255000 M⁻¹ s⁻¹.

B13: M0114-G09 (Fab, V domains shown)
VH: EVQLLESGGGLVQPGGSLRLSCAASGFTFSHYAMDWVRQAPGKGLEWVSVIYSSGGKTTYADSVKGRFTISRDNSKNTLYLQMNSLRAEDTAMYYCARVGVWYGMDVWGQGTTVTVSS
VL: AQSALTQPASVSGSPGQSITISCTGTSSDVGSYKLVSWYQQHPGKAPKLMIYEGSKRPSGVSNRFSGSKSGNTASLTISGLQAEDEADYYCCSYAGSSTWVFGGGTKLTVLG
B13: the Kd was determined as 1.46 nM, the koff was determined as 0.00062 s⁻¹ and the kon is 424000 M⁻¹ s⁻¹.

B14: M0112-D04 (Fab, V domains shown)
VH: EVQLLESGGGLVQPGGSLRLSCAASGFTFSHYVMVWVRQAPGKGLEWVSGIRSSGGVTAYADSVKGRFTISRDNSKNTLYLQMNSLRAEDTAMYYCARVGVWYGMDVWGQGTTVTVSS
VL: AQSALTQPLSVSVALGQTARITCGGNNIGSKNVHWYQQKPGQAPVLVIYRDSNRPSGIPERFSGSNSGNTATLTISGAQAGDEADYYCQVWDSSTVFGGGTKLTVLG
On to B14, for which the Kd was determined as 54.2 nM, the koff was 0.00956 s⁻¹ and the kon turned out to be 176000 M⁻¹ s⁻¹.

B15: M0132-C08 (Fab, V domains shown)
VH: EVQLLESGGGLVQPGGSLRLSCAASGFTFSLYFMTWVRQAPGKGLEWVSSISSSGGSTKYADSVKGRFTISRDNSKNTLYLQMNSLRAEDTAVYYCARGGQWLAFDYWGQGTLVTVSS
VL: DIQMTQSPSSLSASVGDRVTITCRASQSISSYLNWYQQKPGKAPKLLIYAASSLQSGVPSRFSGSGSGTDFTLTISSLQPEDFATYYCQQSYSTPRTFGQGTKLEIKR
On to B15, for which the Kd is 1.3 nM, the koff stood at 0.000444 s⁻¹ and the kon stood at 342000 M⁻¹ s⁻¹.

B16: M0102-C02 (Fab, V domains shown)
VH: EVQLLESGGGLVQPGGSLRLSCAASGFTFSHYLMHWVRQAPGKGLEWVSSIYPSGGKTQYADSVKGRFTISRDNSKNTLYLQMNSLRAEDTAVYYCARVFGYYDFWSGYPGAFDYWGQGTLVTVSS
VL: DIQMTQSPSSLSASVGDRVTITCRASQGISSSLAWYQQKPGKVPKLLIYAASTLQSGVPSRFSGSGSGTDFTLTISSLQPEDFATYYCQQSYSTPWTFGQGTKVEIKR
Turning to B16, the Kd was 43.5 nM, the koff is 0.00628 s⁻¹ and the kon was 144000 M⁻¹ s⁻¹.

B17: M0106-D06 (Fab, V domains shown)
VH: EVQLLESGGGLVQPGGSLRLSCAASGFTFSYYLMGWVRQAPGKGLEWVSSIGPSGGTTKYADSVKGRFTISRDNSKNTLYLQMNSLRAEDTAVYYCARRGLGAAFDYWGQGTLVTVSS
VL: DIQMTQSPSSVSASVGDRVTITCRASQGISSWLAWYQQKPGKAPKLLIYAASSLQSGVPSRFSGSGSGTDFTLTISSLQPEDFATYYCQQANSFPYTFGQGTKLEIKR
In the case of B17, the Kd is 123 nM, the koff stood at 0.019 s⁻¹ and the kon is 154000 M⁻¹ s⁻¹.

B18: M0108-E10 (Fab, V domains shown)
VH: EVQLLESGGGLVQPGGSLRLSCAASGFTFSRYRMVWVRQAPGKGLEWVSSIYPSGGYTKYADSVKGRFTISRDNSKNTLYLQMNSLRAEDTAVYYCARVITYNNFDSWGQGTLVTVSS
VL: DIQMTQSPGTLSLSPGERATLSCRASQTVSSTYLAWYQQKPGQAPRLLIYGASSRATGIPDRFSGGGSGTDFTLTISRLEPEDFAVYYCQQYGSSPPRYTFGQGTKLEIKR
B18: the Kd was determined as 58.4 nM, the koff amounted to 0.0134 s⁻¹ and the kon was 230000 M⁻¹ s⁻¹.

B19: M0102-D07 (Fab, V domains shown)
VH: EVQLLESGGGLVQPGGSLRLSCAASGFTFSRYWMWWVRQAPGKGLEWVSSIGPSGGATRYADSVKGRFTISRDNSKNTLYLQMNSLRAEDTAVYYCTTGSAGNWGQGTLVTVSS
VL: DIQMTQSPGTLSLSPGERATLSCGASQSVSTTYIAWYQHKPGQPPRLLIYGASNRATGIPDRFRGSGSGTDFTLTISRLEPEDFAVYYCQQYGSSPYTFGQGTKLEIKR
Regarding B19, the Kd amounted to 78.6 nM, the koff came to 0.0122 s⁻¹ and the kon amounted to 155000 M⁻¹ s⁻¹.

B20: M0113-D05 (Fab, V domains shown)
VH: EVQLLESGGGLVQPGGSLRLSCAASGFTFSHYIMMWVRQAPGKGLEWVSSIYPSGGSTIYADSVKGRFTISRDNSKNTLYLQMNSLRAEDTAVYYCASATEGYYYGMDVWGQGTTVTVSS
VL: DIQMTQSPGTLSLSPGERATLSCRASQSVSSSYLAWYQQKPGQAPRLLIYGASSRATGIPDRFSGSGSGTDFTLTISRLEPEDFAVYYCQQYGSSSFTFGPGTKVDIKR
As for B20, the Kd stood at 152 nM, the koff is 0.00214 s⁻¹ and the kon was determined as 14100 M⁻¹ s⁻¹.
